The record followed here is US20230265179A1.

B1: CD40L-154 (VHH)
VHH: EVQLVESGGGLVQPGGSLRLSCAASGRTSRSYEMGWFRQAPGKEREFVAAIDWDGSRTQYADSVKGRFTISADNSKNTAYLQMNSLKPEDTAVYYCAVPRETGWDGDWGQGTLVTVSS
B2: CD40L-141 (VHH)
VHH: EVQLVESGGGLVQPGGSLRLSCAASGGTLDDYAMGWFRQAPGKEREFLASVSWGFGSTYYADSVKGRFTISADNSKNTAYLQMNSLKPEDTAVYYCAKDGGSYGMDVWGQGTLVTVSS
B3: CD40L-182 (antibody, V domains shown)
VH: EVQLLESGGGLVQPGGSLRLSCAASGGYNFRDYMHWVRQAPGKGLEWVSYISSSGSSTYYADSVKGRFTISRDNSKNTLYLQMNSLRAEDTAVYYCAKNLGQGFDYWGQGTLVTVSS
VL: DIQMTQSPSSLSASVGDRVTITCSGDNLGDKYVHWYQQKPGKAPKLLIYGKKNRPSGVPSRFSGSGSGTDFTLTISSLQPEDFATYYCQAWDRTVVFGQGTKVEIK
B4: CD40L-385 (antibody, V domains shown)
VH: EVQLLESGGGLVQPGGSLRLSCAASGFTFSNYAMSWVRQAPGKGLEWVSAITGSGSTTYYADSVKGRFTISRDNSKNTLYLQMNSLRAEDTAVYYCARAHDYDSMLMDYWGQGTLVTVSS
VL: DIQMTQSPSSLSASVGDRVTITCRASQSIKSYLNWYQQKPGKAPKLLIYSASSLLSGVPSRFSGSGSGTDFTLTISSLQPEDFATYYCQQSYTLPRTFGGGTKVEIK
B5: CD40L-392 (antibody, V domains shown)
VH: EVQLLESGGGLVQPGGSLRLSCAASGFTFSSFDMTWVRQAPGKGLEWVSGISGSGGTTFYADSVKGRFTISRDNSKNTLYLQMNSLRAEDTAVYYCVRDVSDIYGYLDDAFDIWGQGTLVTVSS
VL: B4 VL with S28D, K30R, S31N, S50A, A51T, L55Q, S56T, T93G, L94A, R96L
B6: CD40L-410 (antibody, V domains shown)
VH: EVQLLESGGGLVQPGGSLRLSCAASGFTFRTYAMGWVRQAPGKGLEWVSAISGSGGIAYYADSVKGRFTISRDNSKNTLYLQMNSLRAEDTAVYYCARHYYYDSSDAFDIWGQGTLVTISS
VL: B4 VL with S9F, S28N, K30L, S31T, S50G, S53T, L55R, T93R, R96L
B7: CD40L-421 (antibody, V domains shown)
VH: EVQLLESGGGLVQPGGSLRLSCAASGFTFSKYAMNWVRQAPGKGLEWVSAISGSGESTYYADSVKGRFTISRDNSKNTLYLQMNSLRAEDTAVYYCATDYGDYDRLNFDLWGQGTLVTVSS
VL: B4 VL with A25G, K30S, Y32F, S50A, S53K, L55H, Q90H, T93S, L94T, R96L
B8: CD40L-401 (antibody, V domains shown)
VH: EVQLLESGGGLVQPGGSLRLSCAASGFTFGNYAMTWVRQAPGKGLEWVSAISGLGGSTYYADSVKGRFTISRDNSKNTLYLQMNSLRAEDTAVYYCTSSDPTYYYDSNGKSSLGMDVWGQGTLVTVSS
VL: B4 VL with A25G, K30S, Y32F, S50A, S53K, L55H, Q90H, T93S, L94T, R96L
B9: CD40L-417 (antibody, V domains shown)
VH: EVQLLESGGGLVQPGGSLRLSCAASGFTFSKYAMNWVRQAPGKGLEWVSAISGSGESTYYADSVKGRFTISRDNSKNTLYLQMNSLRAEDTAVYYCARHGGYYYYYMDVWGQGTLVTVSS
VL: B4 VL with A25G, K30S, Y32F, S50A, S53K, L55H, Q90H, T93S, L94T, R96L

Where a chain is given by its changes, count along the chain named.

Sequence of CD40L (P29965 whole entry): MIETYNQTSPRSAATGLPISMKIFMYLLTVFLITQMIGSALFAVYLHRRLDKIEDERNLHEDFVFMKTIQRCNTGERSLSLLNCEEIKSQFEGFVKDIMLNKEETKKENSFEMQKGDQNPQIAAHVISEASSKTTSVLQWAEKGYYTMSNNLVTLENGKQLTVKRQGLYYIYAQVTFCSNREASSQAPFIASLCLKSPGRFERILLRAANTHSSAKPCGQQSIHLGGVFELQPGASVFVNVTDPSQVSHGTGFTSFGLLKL

The target in the first experiment is CD40L over-expressed on Expi293 cells (UniProt P29965). Briefly: flow cytometry, 100 nM antibody, CD40L-Expi293 vs parent Expi293 cells.
Sequence of CD40L over-expressed on Expi293 cells (P29965 whole entry): as above
For the molecule B1, the 100 nM FACS (MFI Ratio) came to 1.9. Regarding B2, the 100 nM FACS (MFI Ratio) stood at 2. On to B3, for which the 100 nM FACS (MFI Ratio) amounted to 1.8.

A further experiment has as its target CD40L (UniProt P29965). Put plainly: flow cytometry, 100 nM IgG, CD40L over-expressing Expi293 cells over parent Expi293 cells.
Take B4: the 100 nM FACS (MFI Ratio) turned out to be 1.9 MFI ratio. Take B5: the 100 nM FACS (MFI Ratio) was determined as 2 MFI ratio. Same read-out and setting: with B6 the figure was 1.8 MFI ratio; with B7, 1.9 MFI ratio; with B8, 1.8 MFI ratio. In the case of B9, the 100 nM FACS (MFI Ratio) is 1.7 MFI ratio.
